Assay results from patent US20190248883 (published 2019).

Experiments:
[1] = molecular target: T1, IL-8 (human, UniProt P10145); test: SPR, 25C, bivalent
[2] = molecular target: GRO-alpha (human, UniProt P09341); test: ELISA
[3] = molecular target: T1, IL-8; test: SPR, 37C, bivalent
[4] = molecular target: IP-10 (human, UniProt P02778); test: ELISA
[5] = molecular target: GRO-beta (human, UniProt P19875); test: ELISA
[6] = molecular target: T1, IL-8; test: SPR, 37C
[7] = molecular target: T1, IL-8; test: SPR, 25C

T1 sequence (P10145 28-99): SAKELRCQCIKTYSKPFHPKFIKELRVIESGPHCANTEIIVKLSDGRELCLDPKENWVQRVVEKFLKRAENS
GRO-beta, sequence (P19875 35-107): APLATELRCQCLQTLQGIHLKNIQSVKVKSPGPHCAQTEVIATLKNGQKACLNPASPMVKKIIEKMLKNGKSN
GRO-alpha, sequence (P09341 35-107): as the sequence (P19875 35-107) above, with P2S, L3V, L20P, K27N, Q48R, M58I, K68N, N69S, G70D counted along it
IP-10, sequence (P02778 22-98): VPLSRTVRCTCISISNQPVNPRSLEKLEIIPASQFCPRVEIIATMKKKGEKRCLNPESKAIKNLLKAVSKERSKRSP

Binder	Kd [1]	binding result [2]	Kd [3]	binding result [4]	binding result [5]	Kd [6]	Kd [7]
10F8 IgG1,kappa (antibody, V domains shown) VH: QVQLVESGGGVVQPGRSLRLSCTASGFTFSHYGMYWVRQAPGKGLEWVAVIWYDGSYEYNADSVKGRFTISRDNSKNTLYLQMNSLRAEDTAVYYCARDRVGLFDYWGQGTLVTVSS VL: EIVLTQSPGTLSLSPGERATLSCRASQSISSSYLAWYQQKPGQAPRLLIYGPSSRATGIPDRFSGSGSGTDFTLTISRLEPEDFAVYYCQQYAGSLTFGPGTKVDIK	0.01 nM	no binding	0.02 nM	no binding	no binding		
10F8 Fab (antibody, V domains shown) VH: QVQLVESGGGVVQPGRSLRLSCTASGFTFSHYGMYWVRQAPGKGLEWVAVIWYDGSYEYNADSVKGRFTISRDNSKNTLYLQMNSLRAEDTAVYYCARDRVGLFDYWGQGTLVTVSS VL: EIVLTQSPGTLSLSPGERATLSCRASQSISSSYLAWYQQKPGQAPRLLIYGPSSRATGIPDRFSGSGSGTDFTLTISRLEPEDFAVYYCQQYAGSLTFGPGTKVDIK						0.372 nM	0.194 nM
